# From patent US6432692 (WISCONSIN ALUMNI RESEARCH FOUNDATION, dated 2002)
# T1: full length aryl hydrocarbon receptor (AHR) translated in reticulocyte lysate (pSportAHR) (UniProt P30561 1-805, limits assumed)
# T1 construct: also called Ah receptor; radiolabeled AHR
# T1 sequence (looked up): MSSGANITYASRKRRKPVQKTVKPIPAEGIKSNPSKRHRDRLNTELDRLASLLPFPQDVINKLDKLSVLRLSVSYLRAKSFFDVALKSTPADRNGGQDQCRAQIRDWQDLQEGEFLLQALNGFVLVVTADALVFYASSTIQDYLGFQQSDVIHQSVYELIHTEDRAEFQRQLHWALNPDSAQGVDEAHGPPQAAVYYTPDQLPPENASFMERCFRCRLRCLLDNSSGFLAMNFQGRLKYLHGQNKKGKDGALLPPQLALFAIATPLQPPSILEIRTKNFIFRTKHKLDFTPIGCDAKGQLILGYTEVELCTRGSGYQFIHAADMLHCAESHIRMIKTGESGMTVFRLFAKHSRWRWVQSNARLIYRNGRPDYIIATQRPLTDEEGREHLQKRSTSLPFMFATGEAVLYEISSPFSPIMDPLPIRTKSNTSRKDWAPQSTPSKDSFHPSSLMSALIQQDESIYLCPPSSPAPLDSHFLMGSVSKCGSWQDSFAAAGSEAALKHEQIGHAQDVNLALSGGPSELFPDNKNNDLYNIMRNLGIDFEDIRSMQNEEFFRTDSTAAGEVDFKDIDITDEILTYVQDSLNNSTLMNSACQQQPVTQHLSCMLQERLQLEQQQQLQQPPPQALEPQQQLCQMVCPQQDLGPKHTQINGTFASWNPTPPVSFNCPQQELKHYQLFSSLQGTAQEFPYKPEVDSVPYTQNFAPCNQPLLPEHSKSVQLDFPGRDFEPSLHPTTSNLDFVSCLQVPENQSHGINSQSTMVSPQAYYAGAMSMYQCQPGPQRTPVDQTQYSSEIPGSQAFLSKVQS
# B1: T7 tagged FKBP52 expressed in bacteria (pET17b-FKBP52, PL947) (other)
# chain: MASMTGGQQMGMTAEEMKAAESGAQSAPLPLEGVDISPKQDEGVLKVIKREGTGTETPMIGDRVFVHYTGWLLDGTKFDSSLDRKDKFSFDLGKGEVIKAWDIAVATMKVGELCRITCKPEYAYGSAGSPPKIPPNATLVFEVELFEFKGEDLTDDEDGGIIRRIRTRGEGYARPNDGAIVEVALEGYYKDRLFDQRELRFEVGEGESLDLPCGLEKAIQRMEKGEHSILYLKPSYAFGNAGKEKFQIPPYAELKYEVHLKSFEKAKESWEMSSEEKLEQSAIVKERGTVYFKEGKYKQALLQYKKIVSWLEYESSFSSEEVQKAQALRLASHLNLAMCHLKLQAFSAAVESCNKALELDSNNEKGLFRRGEAHLAVNDFDLARADFQKVLQLYPSNKAAKAQLAVCQQRIRKQIAREKKLYANMFERLAEEENKAKAEVAAGDHPMDTEMKDERNDVAGSQSQVETEA
# B2: T7 tagged full length ARA9 expressed in bacteria (pET17b-ARA9, PL799) (other)
# chain: MASMTGGQQMGMADIIARLREDGIQKRVIQEGRGELPDFQDGTKATFHYRTLHSDDEGTVLDDSRARGKPMELIIGKKFKLPVWETIVCTMREGEIAQFLCDIKHVVLYPLVAKSLRNIAVGKDPLEGQRHCCGVAQMREHSSLGHADLDALQQNPQPLIFHMEMLKVESPGTYQQDPWAMTDEEKAKAVPLIHQEGNRLYREGHVKEAAAKYYDAIACLKNLQMKEQPGSPEWIQLDQQITPLLLNYCQCKLVVEEYYEVLDHCSSILNKYDDNVKAYFKRGKAHAAVWNAQEAQADFAKVLELDPALAPVVSRELRALEARIRQKDEEDKARFRGIFSH
# notes: Expressed in BL21(DE3); also called T7-tagged ARA9; FL
# Tests used:
# Hsp90 = molecular target: T2, Hsp90; assay: co-immunoprecipitation of 35S labeled Hsp90 with T7-agarose, bands quantified with a phosphoimager
# T2 construct: also called radiolabeled Hsp90; 35S labeled Hsp90
# Procedure: (§1) The bacterial expression of FKBP52 and ARA9 was confirmed by SDS-PAGE followed by both Coomassie stain and western blot analysis with an anti-T7 peptide antibody (Novagen). Immunoprecipitations of complexes with either AHR- or Hsp90 were performed in MENG buffer as above, using anti-T7 agarose (Novagen). The complexes were then precipitated and analyzed by SDS-PAGE and autoradiography.
# (§2) Figure 3A: FIG. 3A (Top). AHR was translated in reticulocyte lysates in the presence of ^35S-methionine. Labeled proteins were then incubated in the presence of T7 tagged ARA9, T7 tagged FKBP52 or untransformed BL21 extract and complexes were separated and visualized as above. "Input" lanes represent 25% of total protein (AHR or Hsp90) used in experiments. Bottom: The bands radioactivity present in the AHR or Hsp90 bands was quantified using a phosphoimager to make comparisons of relative coimmunoprecipitation. The bars represent the means from three independent experiments. The error bars indicate the standard error of the mean. Figure 3B: FIG. 3B. Hsp90 was used in a similar experiment described in FIG. 3A.
# (§3) Specificity of ARA9 for AHR: The structural similarity between ARA9 and FKBP52 led us to compare the relative capacity of these two factors to bind AHR. […] The AHR-ARA9 or AHR-FKBP52 associations were determined by coimmunoprecipitation with T7-agarose. […]
# [1] = molecular target: T1, full length aryl hydrocarbon receptor …; assay: co-immunoprecipitation of 35S-labeled AHR with T7-agarose, bands quantified with a phosphoimager
# Procedure: as §1, §2, §3
binder,measurement,setting,value
B1,capacity to interact with Hsp90 relative to ARA9,Hsp90,4 fold
B2,efficiency at precipitating AHR relative to FKBP52,[1],~4 times
